Measurements from IntAct's records for PubMed 27458164.

B1: Src-like-adapter 2 (Mus musculus), Q8R4L0 (parent)
chain: MGSLSSRGKTSSPSPSSSGPDQEPVSMQPERHKVTAVALGSFPAGEQARLSLRLGEPLTIISEDGDWWTVQSEVSGREYHMPSVYVAKVAHGWLYEGLSREKAEELLLLPGNPGGAFLIRESQTRRGCYSLSVRLSRPASWDRIRHYRIQRLDNGWLYISPRLTFPSLHALVEHYSELADGICCPLREPCVLQKLGPLPGKDTPPPVTVPTSSLNWKKLDRSLLFLEAPASGEASLLSEGLRESLSSYISLAEDPLDDA

Variants of: B1
Settings: with flt3_human FLT3, P36888
Sequence of flt3_human FLT3, P36888 (P36888 whole entry): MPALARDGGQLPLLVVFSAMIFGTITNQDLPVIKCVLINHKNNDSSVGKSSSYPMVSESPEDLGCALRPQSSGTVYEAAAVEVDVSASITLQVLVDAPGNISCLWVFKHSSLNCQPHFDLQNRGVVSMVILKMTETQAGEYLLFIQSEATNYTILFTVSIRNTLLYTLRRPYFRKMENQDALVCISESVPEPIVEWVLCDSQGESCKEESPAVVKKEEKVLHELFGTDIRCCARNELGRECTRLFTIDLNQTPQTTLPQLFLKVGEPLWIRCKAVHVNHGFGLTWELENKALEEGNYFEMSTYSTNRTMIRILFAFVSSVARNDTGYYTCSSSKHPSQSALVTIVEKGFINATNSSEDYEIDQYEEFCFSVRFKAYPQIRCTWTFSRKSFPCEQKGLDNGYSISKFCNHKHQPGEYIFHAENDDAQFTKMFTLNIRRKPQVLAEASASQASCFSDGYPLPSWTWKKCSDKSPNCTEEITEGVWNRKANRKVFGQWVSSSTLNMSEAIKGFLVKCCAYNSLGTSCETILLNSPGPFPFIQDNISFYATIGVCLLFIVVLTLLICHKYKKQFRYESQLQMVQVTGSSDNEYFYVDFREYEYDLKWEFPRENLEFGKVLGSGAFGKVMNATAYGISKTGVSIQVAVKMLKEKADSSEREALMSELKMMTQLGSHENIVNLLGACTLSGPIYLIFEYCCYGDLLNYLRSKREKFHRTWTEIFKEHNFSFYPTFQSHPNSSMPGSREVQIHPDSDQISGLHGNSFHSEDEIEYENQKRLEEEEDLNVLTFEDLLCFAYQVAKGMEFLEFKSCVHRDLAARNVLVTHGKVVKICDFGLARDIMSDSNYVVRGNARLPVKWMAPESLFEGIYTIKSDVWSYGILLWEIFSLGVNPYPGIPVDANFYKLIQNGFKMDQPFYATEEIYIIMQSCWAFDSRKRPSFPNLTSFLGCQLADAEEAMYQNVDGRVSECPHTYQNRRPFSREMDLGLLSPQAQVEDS

| effect of a mutation on the interaction | Variant |
| --- | --- |
| disrupting interaction | MGSLSSRGKTSSPSPSSSGPDQEPVSMQPERHKVTAVALGSFPAGEQARLSLRLGEPLTIISEDGDWWTVQSEVSGREYHMPSVYVAKVAHGWLYEGLSREKAEELLLLPGNPGGAFLIEESQTRRGCYSLSVRLSRPASWDRIRHYRIQRLDNGWLYISPRLTFPSLHALVEHYSELADGICCPLREPCVLQKLGPLPGKDTPPPVTVPTSSLNWKKLDRSLLFLEAPASGEASLLSEGLRESLSSYISLAEDPLDDA [R120E] |
